Results on one molecule are retold here after patent publication US20230242646A1 (JJP BIOLOGICS SP Z O O, published 2023).

The target of test [1] is T1, membrane full-length cynomolgus monkey CD89 on HEK293F cells (cynomolgus monkey).
T1 construct: also called cynoCD89; cynomolgus EC1-CD89
T1 chain: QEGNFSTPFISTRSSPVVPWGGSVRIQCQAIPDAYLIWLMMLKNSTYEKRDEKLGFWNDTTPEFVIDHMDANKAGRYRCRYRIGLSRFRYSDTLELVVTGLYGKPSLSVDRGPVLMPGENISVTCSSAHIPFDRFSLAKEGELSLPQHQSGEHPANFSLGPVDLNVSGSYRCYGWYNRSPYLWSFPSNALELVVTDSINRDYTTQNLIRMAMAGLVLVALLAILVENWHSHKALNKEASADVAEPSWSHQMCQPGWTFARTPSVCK
The test can be described thus: FACS, transiently transfected HEK293F.
Experimental: To this end, transient transfected HEK293F cells were put at 10 x 10⁶ cells/mL in ice-chilled phosphate-buffered saline containing 0.1% BSA (Sigma)/0.05% NaN₃ (PBS/BSA/NaN₃) supplemented with 50 µg/mL human IgGs (blocking FcY receptors; Sigma) for 10 minutes at 4° C. Then, 10 µL/tube (i.e., 0.1 × 10⁶ cells) of these cells were incubated with or without 100 µL purified mouse anti-human CD89 antibody at 10 µg/mL (in PBS/BSA/NaN₃) for 30 minutes at 4° C. […] After extensive washing in PBS/BSA/NaN₃, cells were subsequently incubated with 1:200 diluted PE-conjugated goat anti-mouse IgG Fcy-specific antibodies (Jackson ImmunoResearch) for 30 minutes at 4° C. After extensive washing in PBS/BSA/NaN₃, cells were fixed in 2% formaldehyde in PBS/BSA/NaN₃ for 30 minutes at 4° C.

Test [2] addresses T2, chimeric human EC1-CD89/bovine EC2-Fcgamma2R (human TM and IC) on HEK293F cells (human/bovine chimera).
T2 construct: also called human EC1-CD89 (version with human transmembrane-intracellular region)
In words: FACS, 10 µg/mL, transiently transfected HEK293F. On the technique in general: Flow cytometry measures light scatter and fluorescence of single cells or particles in a stream.
Experimental: (§1) To this end, transient transfected HEK293F cells were put at 10 × 10⁶ cells/mL in ice-chilled phosphate-buffered saline containing 0.1% BSA (Sigma)/0.05% NaN₃ (PBS/BSA/NaN₃) supplemented with 50 µg/mL human IgGs (blocking Fcy receptors; Sigma) for 10 minutes at 4° C. Then, 10 µL/tube (i.e., 0.1 × 10⁶ cells) of these cells were incubated with or without 100 µL purified mouse anti-human CD89 antibody at 10 µg/mL (in PBS/BSA/NaN₃) for 30 minutes at 4° C. […] After extensive washing in PBS/BSA/NaN₃, cells were subsequently incubated with 1:200 diluted PE-conjugated goat anti-mouse IgG Fcy-specific antibodies (Jackson ImmunoResearch) for 30 minutes at 4° C. After extensive washing in PBS/BSA/NaN₃, cells were fixed in 2% formaldehyde in PBS/BSA/NaN₃ for 30 minutes at 4° C.

For test [3], the target named is T3, chimeric human EC1-CD89/bovine EC2-Fcgamma2R (bovine TM and IC) on HEK293F cells (human/bovine chimera).
T3 construct: also called human EC1-CD89 (version with bovine transmembrane-intracellular region)
In words: FACS, 10 µg/mL, transiently transfected HEK293F.
Experimental: as §1

Test [4] addresses T4, membrane-bound full-length human CD89 on HEK293F cells (human, UniProt P24071 22-287).
T4 construct: 2 or transient transfectants; also called membrane human CD89; human FcaRI
In words: FACS, antibody before secretory IgA on HEK293F-huCD89; IgA detected.

The target in test [5] is T4, membrane-bound full-length human CD89 …. In words: FACS HEK293F-huCD89, 10 ug/mL; competitor PE-MIP8a.
Experimental: (§2) Then, 10 µL/tube (i.e., 0.1 × 10⁶ cells) of these cells were incubated with or without 100 µL purified mouse anti-human CD89 antibody at 10 µg/mL (in PBS/BSA/NaN₃) for 30 minutes at 4° C. […] After extensive washing in PBS/BSA/NaN₃, cells were fixed in 2% formaldehyde in PBS/BSA/NaN₃ for 30 minutes at 4° C.
In test [6] the target is T5, chimeric human/cynomolgus monkey CD89-IV on HEK293F cells (human/cynomolgus chimera, UniProt P24071 22-287).
T5 construct: also called dArg97 - Gly121 human EC1-CD89
T5 chain: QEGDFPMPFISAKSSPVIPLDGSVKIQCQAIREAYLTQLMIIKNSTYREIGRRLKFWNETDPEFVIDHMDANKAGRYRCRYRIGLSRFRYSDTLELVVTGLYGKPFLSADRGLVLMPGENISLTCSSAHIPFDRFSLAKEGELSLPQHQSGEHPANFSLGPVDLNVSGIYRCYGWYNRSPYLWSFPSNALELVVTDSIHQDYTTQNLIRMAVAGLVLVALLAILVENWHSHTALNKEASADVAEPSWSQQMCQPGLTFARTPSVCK
In words: FACS, 10 µg/mL, transiently transfected HEK293F.

The target in test [7] is T4, membrane-bound full-length human CD89 …. The test can be described thus: FACS, antibody before serum IgA on HEK293F-huCD89; IgA detected.
Experimental: Then, 10 µL/tube (i.e., 0.1 x 10⁶ cells) of these cells were incubated with 50 µL titrated (in PBS/BSA/NaN₃) purified mouse anti-human CD89 antibody/tube for 30 minutes at 4° C. […] After extensive washing in PBS/BSA/NaN₃, 1:200 diluted PE-conjugated streptavidin (Jackson ImmunoResearch) was added, and incubated for 30 minutes at 4° C. After extensive washing in PBS/BSA/NaN₃, cells were fixed in 2% formaldehyde in PBS/BSA/NaN₃ for 30 minutes at 4° C.
The target is the same in test [8]. In words: FACS HEK293F-huCD89.
Experimental: After extensive washing in PBS/BSA/NaN₃, cells were subsequently incubated with 1:200 diluted PE-conjugated goat anti-human IgG Fcy-specific antibodies (Jackson ImmunoResearch) for 30 minutes at 4° C. After extensive washing in PBS/BSA/NaN₃, cells were fixed in 2% formaldehyde in PBS/BSA/NaN₃ for 30 minutes at 4° C.
The target of test [9] is T6, membrane full-length bovine Fcgamma2R on HEK293F cells (bovine).
T6 construct: also called bovine Fcy2R
T6 chain: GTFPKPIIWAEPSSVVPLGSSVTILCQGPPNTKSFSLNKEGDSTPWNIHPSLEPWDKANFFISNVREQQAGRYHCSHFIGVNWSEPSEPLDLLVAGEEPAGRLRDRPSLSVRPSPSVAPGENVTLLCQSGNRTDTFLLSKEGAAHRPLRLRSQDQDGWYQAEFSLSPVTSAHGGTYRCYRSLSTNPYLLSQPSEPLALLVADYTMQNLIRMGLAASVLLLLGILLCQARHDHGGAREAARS
In words: FACS, transiently transfected HEK293F.
Experimental: as §1

Test [10] has as its target T7, chimeric bovine EC1-Fcgamma2R/human EC2-CD89 on HEK293F cells (bovine/human chimera).
T7 chain: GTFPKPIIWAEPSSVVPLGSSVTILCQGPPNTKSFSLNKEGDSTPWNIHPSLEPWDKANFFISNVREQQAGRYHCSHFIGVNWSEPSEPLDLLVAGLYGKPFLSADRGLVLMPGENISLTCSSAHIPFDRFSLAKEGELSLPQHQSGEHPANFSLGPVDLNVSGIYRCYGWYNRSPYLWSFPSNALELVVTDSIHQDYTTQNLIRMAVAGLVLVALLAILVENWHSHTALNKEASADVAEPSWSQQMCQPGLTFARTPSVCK
In words: FACS, transiently transfected HEK293F.
Experimental: as §1

Test [11] concerns the target T8, recombinant C-terminal polyhistidine-tagged human (extracellular) CD89 (Sino Biological) (human, UniProt P24071 22-227).
T8 construct: extracellular domain; bought protein; also called rhuCD89; soluble monomeric rhuCD89
In words: ELISA, antibody before serum IgA on coated rhuCD89; IgA detected. (ELISA stands for enzyme-linked immunosorbent assay.)

Test [12] addresses T8, recombinant C-terminal …. The test can be described thus: ELISA, coated rhuCD89.
Experimental: After extensive washing with PBS/0.05% Tween 20, plates were blocked with PBS/0.05% Tween 20/1% BSA (Roche) for 1 hour at RT. Subsequently, plates were incubated with 50 µL titrated (in block buffer) purified mouse anti-human CD89 antibody/well for 1 hour at RT. […] After extensive washing in PBS/0.05% Tween 20, binding of antibodies on rhuCD89 was determined with 1:5,000 diluted horseradish peroxidase (HRP)-conjugated goat anti-mouse IgG Fcy-specific antibodies (Jackson ImmunoResearch) for 1 hour at RT, followed by a ready-to-use solution of TMB substrate (Invitrogen) for colorimetric detection.
After extensive washing with PBS/0.05% Tween 20, plates were blocked with PBS/0.05% Tween 20/1% BSA (Roche) for 1 hour at RT. […] After extensive washing in PBS/0.05% Tween 20, binding of antibodies on rhuCD89 was determined with 1:5,000 diluted horseradish peroxidase (HRP)-conjugated goat anti-human IgG Fcy-specific antibodies (Jackson ImmunoResearch) for 1 hour at RT, followed by a ready-to-use solution of TMB substrate (Invitrogen) for colorimetric detection.
For test [13], the target named is T4, membrane-bound full-length human CD89 …. In words: FACS HEK293F-huCD89, 10 ug/mL; competitor PE-A59.
Experimental: as §2
For test [14], the target named is T8, recombinant C-terminal …. The test can be described thus: BLI (Octet RED96), biotinylated Ab on streptavidin tips, rhuCD89 analyte, 1:1 model. (In general: In BLI a coated tip is dipped into the sample, and binding shifts an interference pattern.)
Experimental: Equilibrium dissociation constants (KD) were determined using a 1:1 Langmuir binding model in Octet® RED96 software (ForteBio).

B1: CD89/IgA blocking mouse anti-human CD89-specific antibody 10E7 (antibody, V domains shown)
VH: EVQLVESGGGLVQPGGSLKLSCAASGLTFSSYGMSWVRQTPDKRLELVATINGNGDITYYPDSVKGRFTISRDNAKNTLYLQMSSLKSEDTAMYYCARDYDYDYAMDYWGQGTSVTVSS
VL: DIQMTQSTSSLSASLGDSVTISCRASQDIINYLNWYQQKPDGTVKLLIYYTSRLHSGVPSRFSGSGSGTEYSLTVSNLEKEDIATYFCQQGKTLPYTFGGGTKLEIK
notes: biotinylated in the Octet assay; also called mouse 10E7
For B1, the binding result in [1] is given as “no binding (tested: 10 µg/mL)”; in test [2] it was “binds”; in test [3], “binds”; in test [6], “binds”; in test [9], “no binding (tested: 10 µg/mL)”; in test [10] it was “no binding (tested: 10 µg/mL)”. Also, the “IC50 (read off the curve)” value is around 1 µg/mL in [4], around 0.7 µg/mL in test [7] and around 0.06 µg/mL in test [11]. Moreover, the “% blocking of PE-MIP8a binding” value in test [5] is below 25%. Moreover, the results for the EC50 in test [8] and in test [12] were 0.637 µg/mL and 0.02 µg/mL, respectively. Further, the “% blocking of PE-A59 binding” value in [13] was below 25%. For the same molecule, the Kd in [14] is 1.67 nM. Also, the koff in test [14] is 0.00111 s⁻¹. The association rate constant (kon) in [14] was 687000 M⁻¹ s⁻¹.

Usually EC50 stands for the concentration needed to bring the measured effect to its halfway point. As usually defined, the Kd is the concentration at which binding is half-saturated. The term koff denotes the rate constant with which the complex falls apart. Usually kon stands for the second-order rate constant of association.
